Numbering of substitutions follows the chain as printed. Names may count otherwise.
B1: anti-PD-1 antibody 1 heavy chain I51C (antibody, human IgG4 S228P, kappa, V domains shown)
VH: QVQLVQSGVEVKKPGASVKVSCKASGYTFTNYYMYWVRQAPGQGLEWMGGCNPSNGGTNFNEKFKNRVTLTTDSSTTTAYMELKSLQFDDTAVYYCARRDYRFDMGFDYWGQGTTVTVSS
VL: EIVLTQSPATLSLSPGERATLSCRASKGVSTSGYSYLHWYQQKPGQAPRLLIYLASYLESGVPARFSGSGSGTDFTLTISSLEPEDFAVYYCQHSRDLPLTFGGGTKVEIKR
B2: anti-PD-1 antibody 1 heavy chain K63C (antibody, human IgG4 S228P, kappa, V domains shown)
VH: B1 VH with C51I, K63C
VL: B1 VL
B3: anti-PD-1 antibody 1 heavy chain Y35C (antibody, human IgG4 S228P, kappa, V domains shown)
VH: B1 VH with Y35C, C51I
VL: B1 VL
B4: anti-PD-1 antibody 2 heavy chain A61C (antibody, human IgG4 S228P, kappa, V domains shown)
VH: QVQLVESGGGVVQPGRSLRLDCKASGITFSNSGMHWVRQAPGKGLEWVAVIWYDGSKRYYCDSVKGRFTISRDNSKNTLFLQMNSLRAEDTAVYYCATNDDYWGQGTLVTVSS
VL: EIVLTQSPATLSLSPGERATLSCRASQSVSSYLAWYQQKPGQAPRLLIYDASNRATGIPARFSGSGSGTDFTLTISSLEPEDFAVYYCQQSSNWPRTFGQGTKVEIKR
B5: anti-PD-1 antibody 2 heavy chain D54C (antibody, human IgG4 S228P, kappa, V domains shown)
VH: B4 VH with D54C, C61A
VL: B4 VL
B6: anti-PD-1 antibody 2 heavy chain D101C (antibody, human IgG4 S228P, kappa, V domains shown)
VH: B4 VH with C61A, D101C
VL: B4 VL
B7: anti-PD-1 antibody 2 heavy chain I51C (antibody, human IgG4 S228P, kappa, V domains shown)
VH: B4 VH with I51C, C61A
VL: B4 VL
B8: anti-CD28 antibody heavy chain G54C-R4-1 (antibody, human IgG4, kappa, V domains shown)
VH: QVQLVQSGAEVKKPGASVKVSCKASGYTFTSYYIHWVRQAPGQGLEWIGCIYPCNVNTNYNEKFKDRATLTVDTSISTAYMELSRLRSDDTAVYFCTRSHYGLDWNFDVWGQGTTVTVSS
VL: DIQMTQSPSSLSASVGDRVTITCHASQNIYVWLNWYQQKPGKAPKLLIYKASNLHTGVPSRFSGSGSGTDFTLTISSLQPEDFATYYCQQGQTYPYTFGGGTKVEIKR
modifications: R4-1 on Cys 54
B9: anti-CD28 antibody heavy chain G102C-R4-1 (antibody, human IgG4, kappa, V domains shown)
VH: B8 VH with C54G, G102C
VL: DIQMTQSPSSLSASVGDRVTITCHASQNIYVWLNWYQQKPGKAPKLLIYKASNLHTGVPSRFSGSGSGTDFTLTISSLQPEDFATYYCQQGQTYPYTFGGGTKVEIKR
modifications: R4-1 on Cys 102
B10: anti-CD28 antibody heavy chain S31C-R4-1 (antibody, human IgG4, kappa, V domains shown)
VH: B8 VH with S31C, C54G
VL: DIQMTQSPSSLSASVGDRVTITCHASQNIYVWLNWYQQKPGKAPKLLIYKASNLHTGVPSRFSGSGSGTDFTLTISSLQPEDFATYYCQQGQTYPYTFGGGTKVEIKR
modifications: R4-1 on Cys 31
B11: anti-CD28 antibody heavy chain S99C-R4-1 (antibody, human IgG4, kappa, V domains shown)
VH: B8 VH with C54G, S99C
VL: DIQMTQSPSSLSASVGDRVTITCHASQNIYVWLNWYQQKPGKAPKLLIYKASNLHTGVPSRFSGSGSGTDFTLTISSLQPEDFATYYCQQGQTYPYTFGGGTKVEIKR
modifications: R4-1 on Cys 99
B12: anti-CD28 antibody heavy chain T30C-R4-1 (antibody, human IgG4, kappa, V domains shown)
VH: B8 VH with T30C, C54G
VL: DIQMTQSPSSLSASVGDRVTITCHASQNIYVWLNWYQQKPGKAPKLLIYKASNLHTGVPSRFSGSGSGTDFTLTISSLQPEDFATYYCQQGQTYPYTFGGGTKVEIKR
modifications: R4-1 on Cys 30
B13: anti-CD28 antibody heavy chain T58C-R4-1 (antibody, human IgG4, kappa, V domains shown)
VH: B8 VH with C54G, T58C
VL: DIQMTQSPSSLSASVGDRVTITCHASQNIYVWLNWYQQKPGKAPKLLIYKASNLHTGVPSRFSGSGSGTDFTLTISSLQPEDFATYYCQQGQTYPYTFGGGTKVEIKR
modifications: R4-1 on Cys 58
B14: anti-CD28 antibody heavy chain Y27C-R4-4 (antibody, human IgG4, kappa, V domains shown)
VH: B8 VH with Y27C, C54G
VL: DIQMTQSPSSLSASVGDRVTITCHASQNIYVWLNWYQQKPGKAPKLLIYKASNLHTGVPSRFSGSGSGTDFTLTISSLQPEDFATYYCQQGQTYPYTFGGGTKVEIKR
modifications: R4-4 on Cys 27
B15: anti-CD28 antibody heavy chain Y52C-R4-4 (antibody, human IgG4, kappa, V domains shown)
VH: B8 VH with Y52C, C54G
VL: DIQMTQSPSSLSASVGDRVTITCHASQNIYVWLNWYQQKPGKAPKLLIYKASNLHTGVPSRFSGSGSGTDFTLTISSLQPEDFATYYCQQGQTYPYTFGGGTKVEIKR
modifications: R4-4 on Cys 52
B16: anti-CTLA-4 antibody heavy chain A61C (antibody, human IgG1, kappa, V domains shown)
VH: QVQLVESGGGVVQPGRSLRLSCAASGFTFSSYTMHWVRQAPGKGLEWVTFISYDGNNKYYCDSVKGRFTISRDNSKNTLYLQMNSLRAEDTAIYYCARTGWLGPFDYWGQGTLVTVSS
VL: not shown
B17: anti-CTLA-4 antibody heavy chain G55C (antibody, human IgG1, kappa, V domains shown)
VH: B16 VH with G55C, C61A
VL: not shown
B18: anti-CTLA-4 antibody heavy chain G66C (antibody, human IgG1, kappa, V domains shown)
VH: B16 VH with C61A, G66C
VL: not shown
B19: anti-CTLA-4 antibody heavy chain L102C (antibody, human IgG1, kappa, V domains shown)
VH: B16 VH with C61A, L102C
VL: not shown
B20: anti-CTLA-4 antibody heavy chain S30C (antibody, human IgG1, kappa, V domains shown)
VH: B16 VH with S30C, C61A
VL: not shown
B21: anti-CTLA-4 antibody heavy chain S31C (antibody, human IgG1, kappa, V domains shown)
VH: B16 VH with S31C, C61A
VL: not shown
B22: anti-CTLA-4 antibody heavy chain S63C (antibody, human IgG1, kappa, V domains shown)
VH: B16 VH with C61A, S63C
VL: not shown
B23: anti-CTLA-4 antibody heavy chain T33C (antibody, human IgG1, kappa, V domains shown)
VH: B16 VH with T33C, C61A
VL: not shown
B24: anti-PD-1 antibody 1 heavy chain K65C (antibody, human IgG4 S228P, kappa, V domains shown)
VH: B1 VH with C51I, K65C
VL: B1 VL
B25: anti-PD-1 antibody 1 heavy chain Y32C (antibody, human IgG4 S228P, kappa, V domains shown)
VH: B1 VH with Y32C, C51I
VL: B1 VL
B26: anti-PD-1 antibody 2 heavy chain D62C (antibody, human IgG4 S228P, kappa, V domains shown)
VH: B4 VH with C61A, D62C
VL: B4 VL
B27: anti-PD-1 antibody 2 heavy chain K57C (antibody, human IgG4 S228P, kappa, V domains shown)
VH: B4 VH with K57C, C61A
VL: B4 VL
B28: anti-PD-1 antibody 2 heavy chain K65C (antibody, human IgG4 S228P, kappa, V domains shown)
VH: B4 VH with C61A, K65C
VL: B4 VL
B29: anti-PD-1 antibody 2 heavy chain Y53C (antibody, human IgG4 S228P, kappa, V domains shown)
VH: B4 VH with Y53C, C61A
VL: B4 VL
B30: anti-PD-1 antibody 2 heavy chain Y59C (antibody, human IgG4 S228P, kappa, V domains shown)
VH: B4 VH with Y59C, C61A
VL: B4 VL
B31: anti-PD-1 antibody 2 heavy chain Y60C (antibody, human IgG4 S228P, kappa, V domains shown)
VH: B4 VH with Y60C, C61A
VL: B4 VL
B32: anti-PD-1 antibody 2 light chain A34C-R4-5 (antibody, human IgG4 S228P, kappa, V domains shown)
VH: B4 VH with C61A
VL: B4 VL with A34C
modifications: R4-5 on Cys 34
B33: anti-PD-1 antibody 2 light chain S30C-R4-1 (antibody, human IgG4 S228P, kappa, V domains shown)
VH: B4 VH with C61A
VL: B4 VL with S30C
modifications: R4-1 on Cys 30
B34: anti-PD-1 antibody 2 light chain S31C-R4-1 (antibody, human IgG4 S228P, kappa, V domains shown)
VH: B4 VH with C61A
VL: B4 VL with S31C
modifications: R4-1 on Cys 31
B35: anti-PD-1 antibody 2 light chain S92C-R4-1 (antibody, human IgG4 S228P, kappa, V domains shown)
VH: B4 VH with C61A
VL: B4 VL with S92C
modifications: R4-1 on Cys 92
B36: anti-PD-1 antibody 2 light chain T56C-R4-5 (antibody, human IgG4 S228P, kappa, V domains shown)
VH: B4 VH with C61A
VL: B4 VL with T56C
modifications: R4-5 on Cys 56
B37: anti-PD-1 antibody 2 light chain Y32C-R4-1 (antibody, human IgG4 S228P, kappa, V domains shown)
VH: B4 VH with C61A
VL: B4 VL with Y32C
modifications: R4-1 on Cys 32
B38: anti-CTLA-4 antibody light chain S31C-R4-1 (antibody, human IgG1, kappa, V domains shown)
VH: B16 VH with C61A
VL: not shown
modifications: R4-1 on Cys 31
B39: anti-CTLA-4 antibody light chain S32C-R4-1 (antibody, human IgG1, kappa, V domains shown)
VH: B16 VH with C61A
VL: not shown
modifications: R4-1 on Cys 32
B40: anti-CTLA-4 antibody light chain S54C-R4-1 (antibody, human IgG1, kappa, V domains shown)
VH: B16 VH with C61A
VL: not shown
modifications: R4-1 on Cys 54
B41: anti-CTLA-4 antibody light chain S95C-R4-1 (antibody, human IgG1, kappa, V domains shown)
VH: B16 VH with C61A
VL: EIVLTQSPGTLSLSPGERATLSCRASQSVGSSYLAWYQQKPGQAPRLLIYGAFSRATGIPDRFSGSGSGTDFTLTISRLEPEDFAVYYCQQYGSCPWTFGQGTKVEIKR
modifications: R4-1 on Cys 95
B42: anti-CTLA-4 antibody light chain T98C-R4-1 (antibody, human IgG1, kappa, V domains shown)
VH: B16 VH with C61A
VL: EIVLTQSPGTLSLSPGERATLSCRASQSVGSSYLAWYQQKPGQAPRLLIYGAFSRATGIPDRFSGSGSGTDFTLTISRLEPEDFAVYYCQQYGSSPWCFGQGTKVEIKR
modifications: R4-1 on Cys 98

What follows are binders tested against T1, PD-1 (UniProt Q15116 25-167, limits assumed) (assay: ELISA, OD mutant/OD WT; B=70-90%).
T1 sequence (Q15116 25-167 limits assumed): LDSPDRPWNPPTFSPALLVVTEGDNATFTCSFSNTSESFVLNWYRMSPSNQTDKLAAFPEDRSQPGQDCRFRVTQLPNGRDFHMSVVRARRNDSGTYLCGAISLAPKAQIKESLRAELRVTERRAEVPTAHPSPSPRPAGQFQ
With B1 the “binding activity (OD after mutation/OD wild type)” value was 70 to 90%. With B2 the “binding activity (OD after mutation/OD wild type)” value was 70 to 90%. In the case of B3, the “binding activity (OD after mutation/OD wild type)” value is reported as 70 to 90%. For B4, the “binding activity (OD after mutation/OD wild type)” value was 70 to 90%. B5 was tested, and the “binding activity (OD after mutation/OD wild type)” value was 70 to 90%. In the case of B6, the “binding activity (OD after mutation/OD wild type)” value is reported as 70 to 90%. With B7 the “binding activity (OD after mutation/OD wild type)” value was 70 to 90%.

These binders were tested against CD28 (UniProt P10747 19-152, limits assumed) (assay: ELISA, conjugate vs WT antibody).
For B8, the “binding activity (% of WT)” value was 97.9%. For B9, the “binding activity (% of WT)” value was 80.1%. In the case of B10, the “binding activity (% of WT)” value is reported as 97.5%. With B11 the “binding activity (% of WT)” value was 87.6%. With B12 the “binding activity (% of WT)” value was 87.3%. For B13, the “binding activity (% of WT)” value was 89.3%. For B14, the “binding activity (% of WT)” value was 94.2%. B15 was tested, and the “binding activity (% of WT)” value was 91.6%.

The binders below were run against T2, CTLA-4 (UniProt P16410 36-162, limits assumed) (assay: ELISA, OD mutant/OD WT; A=90-110%).
T2 sequence (P16410 36-162 limits assumed): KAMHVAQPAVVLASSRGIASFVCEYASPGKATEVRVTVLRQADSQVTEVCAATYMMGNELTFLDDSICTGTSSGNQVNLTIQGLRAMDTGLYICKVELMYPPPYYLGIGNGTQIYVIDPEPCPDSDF
With B16 the “binding activity (OD after mutation/OD wild type)” value was 90 to 110%. For B17, the “binding activity (OD after mutation/OD wild type)” value was 90 to 110%. With B18 the “binding activity (OD after mutation/OD wild type)” value was 90 to 110%. With B19 the “binding activity (OD after mutation/OD wild type)” value was 90 to 110%. With B20 the “binding activity (OD after mutation/OD wild type)” value was 90 to 110%. With B21 the “binding activity (OD after mutation/OD wild type)” value was 90 to 110%. B22 was tested, and the “binding activity (OD after mutation/OD wild type)” value was 90 to 110%. With B23 the “binding activity (OD after mutation/OD wild type)” value was 90 to 110%.

These binders were tested against T1, PD-1 (assay: ELISA, OD mutant/OD WT; ↓=less than 70%).
For B24, the “binding activity vs wild type” value was < 70%. In the case of B25, the “binding activity vs wild type” value is reported as < 70%. In the case of B26, the “binding activity vs wild type” value is reported as < 70%. In the case of B27, the “binding activity vs wild type” value is reported as < 70%. In the case of B28, the “binding activity vs wild type” value is reported as < 70%. In the case of B29, the “binding activity vs wild type” value is reported as < 70%. B30 was tested, and the “binding activity vs wild type” value was < 70%. B31 was tested, and the “binding activity vs wild type” value was < 70%.

These binders were tested against T1, PD-1 (assay: ELISA, conjugate vs WT antibody).
With B32 the “binding activity (% of WT)” value was 83.9%. B33 was tested, and the “binding activity (% of WT)” value was 34.4%. In the case of B34, the “binding activity (% of WT)” value is reported as 95.7%. With B35 the “binding activity (% of WT)” value was 45.5%. For B36, the “binding activity (% of WT)” value was 89.4%. For B37, the “binding activity (% of WT)” value was 25.6%.

These binders were tested against T2, CTLA-4 (assay: ELISA, conjugate vs WT antibody).
For B38, the “binding activity (% of WT)” value was 80.9%. For B39, the “binding activity (% of WT)” value was 99%. B40 was tested, and the “binding activity (% of WT)” value was 97.7%. For B41, the “binding activity (% of WT)” value was 95.4%. B42 was tested, and the “binding activity (% of WT)” value was 91%.

— patent US20230158141A1 (YAFEI SHANGHAI BIOLOG MEDICINE SCIENCE AND TECHNOLOGY, published 2023)
